# Results taken from article PMC3800195 (Molecular microbiology, 2010).
# Target: the molecule itself
# Assay: crystal structure
protein,measurement,value
"IsdI (enzyme, Staphylococcus aureus) MFMAENRLQLQKGSAEETIERFYNRQGIETIEGFQQMFVTKTLNTEDTDEVKILTIWESEDSFNNWLNSDVFKEAHKNVRLKSDDDGQQSPILSNKVFKYDIGYHYQK",binding result,binds
